Results taken from the supplement of paper PMC6757056.
± gives the standard deviation of the averaged measurements.

B1: library; a variant is named by its letters at N, in order (parent)
chain: GCUGUCACCGGUGCUUGGUACGUUAUAUUCAGCCGGUCUGAUGAGUCUNNNNNNAGACGAAACAGC

Tests used:
(6R,S)-folinic acid [1] = variants of: B1; assay: normalized RNA/DNA level without ligand (relative to sTRSVctl = 100) (log10 (% of sTRSVctl)); HEK293T overexpressing SLC46A1; higher = less ribozyme self-cleavage, higher mRNA level; details: without (6R,S)-folinic acid; ligand present: no
Summary of the method: (§1)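 Total RNA, extracted with EDTA 72 h after HEK293T cells were transfected with 4 µg per 6-well well of reporter-linked ribozyme switch library plasmids, was reverse-transcribed, amplified, barcoded and sequenced. Ligand, if used, was added 1 h before transfection. RNA level was derived from RNA reads divided by DNA reads and normalized to a spiked-in non-cleaving sequence or to the top sequences. This was multiplied by 100 and log10-transformed, with the top set of 25 sequences and a ≥100 DNA read minimum.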

(6R,S)-folinic acid [2] = variants of: B1; assay: normalized RNA/DNA level with ligand (relative to sTRSVctl = 100) (log10 (% of sTRSVctl)); HEK293T overexpressing SLC46A1; ligand concentration (+) RNA-Seq: 6 mM; higher = less ribozyme self-cleavage, higher mRNA level; details: with (6R,S)-folinic acid; ligand present: yes
Summary of the method: as §1

| Variant | normalized RNA/DNA level without ligand (log10) ((6R,S)-folinic acid [1]) | normalized RNA/DNA level with ligand (log10) ((6R,S)-folinic acid [2]) |
| --- | --- | --- |
| UAGCUU | 2.001 ± 0.012 | 2.02 ± 0.029 |
| UAGCUG | 1.9 ± 0.021 | 2.026 ± 0.016 |
| GAUCAA | 2.001 ± 0.0021 | 2 ± 0.027 |
| GAUCAG | 2.03 ± 0.041 | 2.05 ± 0.028 |
| GAUCAC | 2.03 ± 0.031 | 2.034 ± 0.0087 |
| AAGACU | 2.01 ± 0.0024 | 2.02 ± 0.04 |
| AAGACC | 2.03 ± 0.033 | 2.03 ± 0.03 |
| UAUCAC | 1.978 ± 0.0043 | 1.99 ± 0.013 |
| AAGUUU | 2.009 ± 0.017 | 2.01 ± 0.033 |
| AAGUUC | 2.031 ± 0.017 | 2.02 ± 0.054 |
| AAGGAC | 1.966 ± 0.0074 | 1.99 ± 0.037 |
| CAUAAG | 1.95 ± 0.035 | 2.03 ± 0.035 |
| AACUGU | 1.97 ± 0.016 | 2.007 ± 0.02 |
| AACUGC | 2.048 ± 0.015 | 2.06 ± 0.038 |
| UAGAAC | 1.979 ± 0.012 | 2 ± 0.033 |
| CAGCAA | 1.963 ± 0.018 | 1.971 ± 0.013 |
| CAGCAG | 1.962 ± 0.015 | 2.03 ± 0.052 |
| CAGCAC | 2.03 ± 0.022 | 1.98 ± 0.045 |
| UAUAAC | 1.98 ± 0.0056 | 2 ± 0.029 |
| UACUAA | 1.973 ± 0.0021 | 2.02 ± 0.0061 |
| UACUAG | 1.828 ± 0.016 | 1.99 ± 0.031 |
| UACUAC | 2.022 ± 0.0093 | 2.011 ± 0.0087 |
| AAGGUU | 1.974 ± 0.015 | 2.02 ± 0.025 |
| UACGUU | 1.971 ± 0.0048 | 1.997 ± 0.014 |
| GAGGGC | 1.956 ± 0.011 | 2.04 ± 0.042 |
| GAGGGG | 2.007 ± 0.018 | 2.04 ± 0.051 |
| GAUAUU | 2.005 ± 0.0061 | 2.02 ± 0.041 |
| GAUAUC | 2.02 ± 0.018 | 2.03 ± 0.036 |
| UAGGAG | 1.63 ± 0.024 | 1.91 ± 0.033 |
